This assay deals with RGD peptide. Put plainly: Single molecule conductance of integrin binding RGD peptide on electrodes. The following applies: one ligand binding site.
Sequence of RGD peptide (P06756 31-889 limits assumed): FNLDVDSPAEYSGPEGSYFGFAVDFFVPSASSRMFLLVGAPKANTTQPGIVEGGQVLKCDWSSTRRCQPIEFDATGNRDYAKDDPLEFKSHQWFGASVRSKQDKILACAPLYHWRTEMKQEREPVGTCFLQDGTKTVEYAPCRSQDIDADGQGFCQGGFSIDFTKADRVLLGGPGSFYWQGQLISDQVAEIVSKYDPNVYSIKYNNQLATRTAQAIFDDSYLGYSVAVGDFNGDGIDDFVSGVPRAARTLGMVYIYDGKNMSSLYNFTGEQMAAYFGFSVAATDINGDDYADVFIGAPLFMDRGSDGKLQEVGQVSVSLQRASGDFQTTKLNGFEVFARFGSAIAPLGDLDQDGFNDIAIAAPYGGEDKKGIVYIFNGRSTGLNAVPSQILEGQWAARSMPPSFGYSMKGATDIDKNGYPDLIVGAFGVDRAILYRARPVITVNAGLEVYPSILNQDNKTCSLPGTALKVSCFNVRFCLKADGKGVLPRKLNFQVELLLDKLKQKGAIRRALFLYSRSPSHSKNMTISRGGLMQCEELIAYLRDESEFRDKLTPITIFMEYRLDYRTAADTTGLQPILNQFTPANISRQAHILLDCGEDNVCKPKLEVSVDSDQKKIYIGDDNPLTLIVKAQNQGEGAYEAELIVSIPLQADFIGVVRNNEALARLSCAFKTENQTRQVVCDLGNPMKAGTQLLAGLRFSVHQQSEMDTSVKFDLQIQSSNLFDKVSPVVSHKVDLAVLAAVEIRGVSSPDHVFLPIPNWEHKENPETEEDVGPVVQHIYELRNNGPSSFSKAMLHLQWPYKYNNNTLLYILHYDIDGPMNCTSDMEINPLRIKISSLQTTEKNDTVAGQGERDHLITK
Sequence of RGD peptide (P06756 891-1048 partner limits assumed): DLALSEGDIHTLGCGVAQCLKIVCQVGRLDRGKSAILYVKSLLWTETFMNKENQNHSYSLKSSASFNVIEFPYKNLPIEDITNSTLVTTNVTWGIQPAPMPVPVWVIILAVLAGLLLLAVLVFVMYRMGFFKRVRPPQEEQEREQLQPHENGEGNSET
Sequence of RGD peptide (P05106 27-788, further chain): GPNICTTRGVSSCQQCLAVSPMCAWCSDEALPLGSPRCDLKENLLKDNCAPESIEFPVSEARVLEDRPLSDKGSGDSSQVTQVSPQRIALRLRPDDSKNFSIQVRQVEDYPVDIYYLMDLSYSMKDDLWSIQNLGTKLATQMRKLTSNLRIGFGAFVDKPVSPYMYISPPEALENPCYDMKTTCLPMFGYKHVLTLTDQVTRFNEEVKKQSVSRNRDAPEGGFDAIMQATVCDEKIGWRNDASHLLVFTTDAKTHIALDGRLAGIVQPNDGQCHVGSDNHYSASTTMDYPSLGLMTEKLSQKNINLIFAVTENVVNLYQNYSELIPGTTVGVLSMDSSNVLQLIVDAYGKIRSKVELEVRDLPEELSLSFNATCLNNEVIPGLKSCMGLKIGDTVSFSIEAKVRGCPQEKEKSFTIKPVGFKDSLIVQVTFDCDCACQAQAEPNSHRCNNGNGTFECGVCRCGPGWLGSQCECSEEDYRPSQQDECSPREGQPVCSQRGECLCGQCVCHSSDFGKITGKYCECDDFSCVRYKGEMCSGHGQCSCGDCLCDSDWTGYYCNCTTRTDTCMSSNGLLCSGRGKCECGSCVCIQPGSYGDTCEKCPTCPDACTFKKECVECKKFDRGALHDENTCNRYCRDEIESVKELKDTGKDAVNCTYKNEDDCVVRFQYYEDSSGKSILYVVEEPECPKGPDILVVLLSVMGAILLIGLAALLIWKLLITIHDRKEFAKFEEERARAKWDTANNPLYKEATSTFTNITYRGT

Take “Integrin: αvβ3 integrin binding RGD peptide; only one ligand binding site”: the “conductance G, single peak of distribution” value is on record as 0.3 nS.

The values are drawn from patent publication US12031981B2, “Method for electronic detection and quantification of antibodies” (Arizona Board of Regents on behalf of Arizona State …, priority 2018, dated 2024).
